Square brackets hold non-standard residues; d marks the D form. Ends that are not written are not given here. LTF = trifluoroleucine
How the values were obtained:
[1] = Linear regression model predictions; conditions: from 181.7 nm fiber diameter
Description: A linear model was previously established correlating the increase in thermostability upon binding CCM, and the loss of ordered structure as measured by ATR-FTIR. Based on this model, a 14.5% loss of structure is predicted, which translates to an error of just 0.4% from a measured structure loss of 14.1%, within the root mean squared error (RMSE) of the model, which is calculated here to be 0.9%. […] While CCM-binding imposes a negative impact on the ordered structure of the coiled-coil, a loss of secondary structure measured by ATR-FTIR has been associated with a positive interaction of CCM in the hydrophobic pore, which helps stabilize the protein and increase thermostability. Thus, the fluorination of Q2LTF results in a strengthened interaction with CCM.
Binding of CCM causes fiber thickening of Q2LTF (FIG. 34d, 44), consistent with recent analysis of supramolecular coiled-coil fibers. Fiber-thickening by CCM has been established for collagen activity as well as coiled-coil fibers and is explained by increased solvation of polar groups and burying of the hydrophobic residues leading to increased surface activity. […] While this relationship was assessed for non-fluorinated CCM fibers, the predicted fiber diameter is […] based on a 181.7 nm Q2LTF fiber diameter translating to an error of […], just outside our model's root mean squared error (RMSE) of […] (FIG. 45). […]

[2] = test system: type 2 mouse diabetic wound; assay: Diabetic mouse wound model; type: in vivo; conditions: vs exosomes alone and untreated mice
Cryo-EM of Q5 gel = type: physicochemical
Description: Cryo-Electron Microscopy. Lacey Carbon 300 mesh copper grids (Ted Pella) were used for cryo-EM imaging on FEI TALOS F200C with Ceta 16M camera at 200 kV accelerating voltage. PELCO easiGlow™ Glow Discharge Cleaning System was also used for the plasma treatment of the grids.
Cryo-EM. Cryo-EM samples were prepared with the Vitrobot system (Thermo Fisher Scientific) which can help vitrify a thin solution layer at low temperature. Approximately 4 μl of sample solution was applied to the grids in the chamber of Vitrobot at 4° C. and 100% humidity. The sample solution was incubated for 10 s and then the grid was blotted three times. Blotting lasted 1 s for each time. […] Then, the grid was transferred into liquid nitrogen. The cryo-EM holder was kept at −175° C. to prevent solvent crystallization during the imaging. Coarse-grained Model Details. Each bond is defined by Equation 10: […]

[3] = Small angle X-ray scattering of Q5; type: physicochemical
Description: Small Angle X-ray Scattering (SAXS). SAXS was employed to measure interparticle interactions, structure, and shape of Q5 since it was capable of gelation in the instrument holder within 24 h. SAXS experiments were performed at the National Synchrotron Light Source-II (NSLS-II) Beamline 16-ID (LiX) at Brookhaven National Laboratory.
Small Angle X-ray Scattering (SAXS). All measurements were taken within 12 h of concentration of the protein from the dialysis bag. To study Q5 as an isolated particle, 150 μM (˜1 mg/mL) protein and dialysis buffer (50 mM Tris 500 mM NaCl pH 8.0) was loaded into a flow cell and measured in the q range […] to 3.19 Å^−1. The Q5 protein transition from solution to hydrogel was measured by incubation at 4° C. of 3 mM of Q5 protein in an eight-slot holder capable of loading 30 μL of each sample. Between measurements, the holder was returned for incubation at 4° C. Independent slots were used to load six samples of the Q5 hydrogel in solution including one for the empty cell and one for the dialysis buffer. Each slot was measured once incrementally over a 24 h incubation window to negate the impact of radiation (except for the measurement made at 24 h which was measured from the previous time point sample due to sample error in the last slot holder, however, a negligible impact of radiation was observed). Similarly, Q5 hydrogel measurements made at 3 mM and 4° C. were measured in the q range 0.005 Å^−1 to 3.19 Å^−1. Kratky plots were calculated by Guinier analysis of Rg and I(0) values. Flory exponents were calculated using MFF fit by Sosnick group online tool. Pair distance distribution function, P(r), was calculated using primus (ATSAS software).

[4] = Q, previous results; cited from earlier work

In the case of “Q2LTF: protein-engineered fluorinated coiled-coil fiber, Q2 with trifluoroleucine, SEQ ID NO: 20 (MRGSHHHHHHGSIEGRVKE[LTF][LTF]F[LTF]KKTAEQM[LTF]EE[LTF]KETNKA[LTF]HDVRH[LTF][LTF]ENQSK[LTF]; ends and bridges not checked) [Protein Q2LTF]”, the “predicted CCM-thickened fiber diameter” value [1] is reported as 12.9 μm.

In the case of “Q5: Q hydrogel variant from Rosetta Monte Carlo search, SEQ ID NO: 14 (MRGSHHHHHHGSIEGRVKEITFIKKTIEQIAEEMKEINKAIHDIRHALENISKK) [Protein Q5]”, the diabetic wound closure [2] is reported as “faster time to closure”, the “fiber diameter (cryo-EM)” value (Cryo-EM of Q5 gel; 0.5 mM, n=100) is reported as 3.4±0.7 nm and the “fiber diameter (cryo-EM)” value (Cryo-EM of Q5 gel; 1 mM, n=100) is reported as 5.6±2.1 nm. The “fiber spacing by FFT” value (Cryo-EM of Q5 gel; 2 mM) was 14-17 nm, the “crosslinked fiber diameter (cryo-EM)” value (Cryo-EM of Q5 gel; 2 mM, n=100) was 5.8±1.5 nm and the “P(r) distribution centre” value ([3]; 150 μM, 0 h at 4 °C) was 22.5 Å. The “average step-size increase of P(r) peaks” value ([3]; 3 mM, 24 h at 4 °C) was 39.1±4.2 Å and the cylinder length ([3]; assuming cylindrical shape) was 6.8±0.4 nm.

In the case of “Q: rationally designed pentameric coiled-coil derived from C, SEQ ID NO: 23 (MRGSHHHHHHGSIEGRVKEITFLKNTAPQMLRELQETNAALQDVRELLRQQSKL) [reference compound]”, the “α-helical secondary structure upon gelation” value [4] is listed as 52%.

— patent US20240115742A1, “FLUORINATED FIBERS FOR MULTIMODAL 1H AND 19F MRI, ULTRASOUND, FLUORESCENCE DETECTION AND CONFORMATIONAL AND TEMPERATURE DETECTION BY 19F MRS” (New York University, priority 2022, published 2024)
